Assay results reported in the supplement of paper PMC10598134.
± gives the standard deviation.

Assays:
[1] = collision cross section of unmodified peptide (TIMS, N2, iRT-aligned); higher = larger / more extended gas-phase ion
Procedure: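 Unmodified synthetic counterpart peptides (ProteomeTools / JPT), analysed by nanoLC-TIMS-QTOF (dda-PASEF). 1/K0 was aligned run-wise to spiked iRT peptides and converted to CCS in N2 (Mason-Schamp). Values are the mean of 1-3 technical replicates for the most abundant feature at each charge state. The same unmodified peptide is repeated across rows and is averaged.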

[2] = collision cross section of modified peptide (TIMS, N2, iRT-aligned); higher = larger / more extended gas-phase ion
Method in brief: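 Synthetic peptide pools (~100 fmol/µL in 2% acetonitrile/0.1% formic acid, iRT standard spiked 1:40) were separated on a 120-min nanoflow C18 gradient at 60 °C. They were analysed on a timsTOF Pro/HT (dda-PASEF, nitrogen, ~2.4 mbar) and identified with MaxQuant. 1/K0 was calibrated with three reference ions and aligned run-wise to the median iRT peptide deviation. Collision cross section came from the Mason-Schamp equation, averaging 1–3 technical replicates of the most abundant feature per charge state.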

[3] = charge state: 2, modification: Phospho (Y)
[4] = charge state: 2, modification: Nitro (Y)
[5] = charge state: 3, modification: Dimethyl (K)
[6] = charge state: 3, modification: GlyGly (K)
[7] = charge state: 3, modification: Methyl (K)
[8] = charge state: 3, modification: Trimethyl (K)

Substance AAGQPYEQHAK has a collision cross section ([1]; charge state: 2) of 373.09 ± 0.48 Å² and a collision cross section ([1]; charge state: 3) of 423.62 ± 1.7 Å².

Substance AAHGRGALAEAAR has a collision cross section ([1]; charge state: 2) of 390.08 ± 0.35 Å² and a collision cross section ([1]; charge state: 3) of 476.13 ± 1.3 Å².

For AAINQKLIETGER, the collision cross section ([1]; charge state: 2) was 409.65 ± 1.4 Å² and the collision cross section ([1]; charge state: 3) was 476.29 ± 7.6 Å².

AAQASDLEKIHLDEK showed a collision cross section ([1]; charge state: 2) of 447.85 ± 1.2 Å² and a collision cross section ([1]; charge state: 3) of 506 ± 5.5 Å².

Work on AAYQAAIRGVGSAQSR yielded a collision cross section ([1]; charge state: 2) of 436.77 ± 1.2 Å² and a collision cross section ([1]; charge state: 3) of 509.17 ± 1.3 Å².

Substance AEGYEVAHGGR has a collision cross section ([1]; charge state: 2) of 358.34 ± 0.55 Å² and a collision cross section ([1]; charge state: 3) of 438.28 ± 0.89 Å².

For “YADLTEDQLPSCESLK [_Y(Phospho (Y))ADLTEDQLPSCESLK_]”, the collision cross section [2, 3] was 458.87 Å².

Substance YEATSVQQK [_Y(Nitro (Y))EATSVQQK_] has a collision cross section [2, 4] of 342.71 ± 0.55 Å².

For YEATSVQQK [_Y(Phospho (Y))EATSVQQK_], the collision cross section [2, 3] was 348.75 ± 0.066 Å².

Work on “YEEIVKEVSTYIK [_YEEIVK(Acetyl (K))EVSTYIK_]” yielded a collision cross section ([2]; charge state: 2, modification: Acetyl (K)) of 431.89 ± 3.1 Å².

Work on “YEEIVKEVSTYIK [_YEEIVK(Dimethyl (K))EVSTYIK_]” yielded a collision cross section [2, 5] of 492.52 Å².

In the case of “YEEIVKEVSTYIK [_YEEIVK(Gluratylation)EVSTYIK_]”, the collision cross section ([2]; charge state: 2, modification: Glutarylation) is reported as 443.96 ± 1.5 Å².

“YEEIVKEVSTYIK [_YEEIVK(GlyGly (K))EVSTYIK_]” gave a collision cross section ([2]; charge state: 2, modification: GlyGly (K)) of 459.86 ± 0.94 Å² and a collision cross section [2, 6] of 512.47 ± 1.1 Å².

In the case of “YEEIVKEVSTYIK [_YEEIVK(Malonyl)EVSTYIK_]”, the collision cross section ([2]; charge state: 2, modification: Malonyl) is reported as 438.59 ± 1.6 Å².

“YEEIVKEVSTYIK [_YEEIVK(Methyl (K))EVSTYIK_]” showed a collision cross section ([2]; charge state: 2, modification: Methyl (K)) of 440.62 ± 1.8 Å² and a collision cross section [2, 7] of 492.07 ± 3.2 Å².

“YEEIVKEVSTYIK [_YEEIVK(Succinyl)EVSTYIK_]” gave a collision cross section ([2]; charge state: 2, modification: Succinyl) of 438.13 ± 0.83 Å².

“YEEIVKEVSTYIK [_YEEIVK(Trimethyl (K))EVSTYIK_]” showed a collision cross section ([2]; charge state: 2, modification: Trimethyl (K)) of 455.74 ± 0.69 Å² and a collision cross section [2, 8] of 498.32 ± 1.1 Å².

In the case of “YEEIVKEVSTYIK [_YEEIVK(hydroxyisobutyryl)EVSTYIK_]”, the collision cross section ([2]; charge state: 2, modification: hydroxyisobutyryl) is reported as 436.97 ± 5 Å².

YEITEQR [_Y(Nitro (Y))EITEQR_] showed a collision cross section [2, 4] of 327.03 ± 0.71 Å².

YEITEQR [_Y(Phospho (Y))EITEQR_] showed a collision cross section [2, 3] of 328.08 ± 0.068 Å².

Substance “YEQEHAAIQDKLFQVAK [_YEQEHAAIQDK(Acetyl (K))LFQVAK_]” has a collision cross section ([2]; charge state: 3, modification: Acetyl (K)) of 513.78 ± 1.6 Å².

For “YEQEHAAIQDKLFQVAK [_YEQEHAAIQDK(Biotin)LFQVAK_]”, the collision cross section ([2]; charge state: 3, modification: Biotin) was 538 ± 1.6 Å².

“YEQEHAAIQDKLFQVAK [_YEQEHAAIQDK(Butyryl)LFQVAK_]” showed a collision cross section ([2]; charge state: 3, modification: Butyryl) of 517.33 ± 1 Å².

Work on “YEQEHAAIQDKLFQVAK [_YEQEHAAIQDK(Dimethyl (K))LFQVAK_]” yielded a collision cross section [2, 5] of 556.37 ± 0.79 Å².

For “YEQEHAAIQDKLFQVAK [_YEQEHAAIQDK(Formyl)LFQVAK_]”, the collision cross section ([2]; charge state: 3, modification: Formyl) was 510.23 ± 1.3 Å².

“YEQEHAAIQDKLFQVAK [_YEQEHAAIQDK(Gluratylation)LFQVAK_]” showed a collision cross section ([2]; charge state: 3, modification: Glutarylation) of 519.4 ± 1.2 Å².

Substance “YEQEHAAIQDKLFQVAK [_YEQEHAAIQDK(GlyGly (K))LFQVAK_]” has a collision cross section [2, 6] of 562.29 ± 1.2 Å².

For “YEQEHAAIQDKLFQVAK [_YEQEHAAIQDK(Malonyl)LFQVAK_]”, the collision cross section ([2]; charge state: 3, modification: Malonyl) was 515.74 ± 1.8 Å².

With “YEQEHAAIQDKLFQVAK [_YEQEHAAIQDK(Methyl (K))LFQVAK_]” the collision cross section [2, 7] was 557.9 ± 0.6 Å².

Work on “YEQEHAAIQDKLFQVAK [_YEQEHAAIQDK(Succinyl)LFQVAK_]” yielded a collision cross section ([2]; charge state: 3, modification: Succinyl) of 518.31 ± 1.6 Å².

In the case of “YEQEHAAIQDKLFQVAK [_YEQEHAAIQDK(Trimethyl (K))LFQVAK_]”, the collision cross section [2, 8] is reported as 561.55 ± 0.91 Å².

In the case of “YEQEHAAIQDKLFQVAK [_YEQEHAAIQDK(hydroxyisobutyryl)LFQVAK_]”, the collision cross section ([2]; charge state: 3, modification: hydroxyisobutyryl) is reported as 519.87 ± 2 Å².

With “YGRGQLNYPLPDFSK [_YGR(Citrullination (R))GQLNYPLPDFSK_]” the collision cross section ([2]; charge state: 2, modification: Citrullination (R)) was 439.93 ± 0.95 Å² and the collision cross section ([2]; charge state: 3, modification: Citrullination (R)) was 492.79 Å².

Work on “YGRGQLNYPLPDFSK [_YGR(Methyl (R))GQLNYPLPDFSK_]” yielded a collision cross section ([2]; charge state: 3, modification: Methyl (R)) of 496.04 ± 0.79 Å².

YHEDIFGLTLR [_Y(Nitro (Y))HEDIFGLTLR_] showed a collision cross section [2, 4] of 391.96 ± 0.8 Å² and a collision cross section ([2]; charge state: 3, modification: Nitro (Y)) of 465.92 ± 0.23 Å².

In the case of “YIDNQVVSTKGER [_YIDNQVVST(HexNAc (ST))KGER_]”, the collision cross section ([2]; charge state: 2, modification: HexNAc (ST)) is reported as 428.63 ± 0.14 Å² and the collision cross section ([2]; charge state: 3, modification: HexNAc (ST)) is reported as 510.94 ± 0.18 Å².
